The source of these data is patent US20180155451A1 (published 2018).

The labels stand for the following.
B1: GpH7-A5/GpH7-B3 variant G237_02A/GpL16-k0 (antibody, human IgG1, kappa)
heavy 1: not shown
heavy 2: not shown
light: DIVMTQSPLSLPVTPGEPASISCQASESLVHSNRNTYLHWYLQKPGQSPQLLIYKVSNRFSGVPDRFSGSGSGTDFTLKISRVEAEDVGVYYCSQNTHVPPTFGQGTKVEIERTVAAPSVFIFPPSDEQLKSGTASVVCLLNNFYPREAKVQWKVDNALQSGNSQESVTEQDSKDSTYSLSSTLTLSKADYEKHKVYACEVTHQGLSSPVTKSFNRGEC
notes: also called He Ab G237_02A
B2: GpH7-A5/GpH7-B3 variant A327_18N/GpL16-k0 (antibody, human IgG1, kappa)
heavy 1: not shown
heavy 2: not shown
light: B1 light
notes: also called He Ab A327_18N
B3: GpH7-A5/GpH7-B3 variant G237_04F/GpL16-k0 (antibody, human IgG1, kappa)
heavy 1: not shown
heavy 2: not shown
light: B1 light
notes: also called He Ab G237_04F
B4: GpH7-A5/GpH7-B3 variant A327_07I/GpL16-k0 (antibody, human IgG1, kappa)
heavy 1: not shown
heavy 2: not shown
light: B1 light
notes: also called He Ab A327_07I
B5: GpH7-A5/GpH7-B3 variant A330_05P/GpL16-k0 (antibody, human IgG1, kappa)
heavy 1: not shown
heavy 2: not shown
light: B1 light
notes: also called He Ab A330_05P
B6: GpH7-A5/GpH7-B3 variant A330_01G/GpL16-k0 (antibody, human IgG1, kappa)
heavy 1: not shown
heavy 2: not shown
light: B1 light
notes: also called He Ab A330_01G
B7: GpH7-B3 variant P271_09D/GpL16-k0 (antibody, human IgG1, kappa)
heavy: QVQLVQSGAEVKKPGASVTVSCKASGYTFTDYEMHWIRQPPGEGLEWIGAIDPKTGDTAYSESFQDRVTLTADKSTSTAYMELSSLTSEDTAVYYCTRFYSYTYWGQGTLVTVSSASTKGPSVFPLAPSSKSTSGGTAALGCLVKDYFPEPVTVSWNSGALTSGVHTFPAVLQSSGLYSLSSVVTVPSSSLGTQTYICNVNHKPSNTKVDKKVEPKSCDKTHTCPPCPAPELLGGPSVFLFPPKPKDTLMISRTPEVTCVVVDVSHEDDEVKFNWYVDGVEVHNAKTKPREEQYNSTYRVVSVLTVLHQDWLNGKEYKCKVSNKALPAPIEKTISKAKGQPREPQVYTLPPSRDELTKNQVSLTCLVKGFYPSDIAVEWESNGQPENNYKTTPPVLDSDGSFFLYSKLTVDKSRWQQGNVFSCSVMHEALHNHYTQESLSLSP
light: B1 light
notes: also called Ho Ab P271_09D
B8: GpH7-B3 variant T335_16H/GpL16-k0 (antibody, human IgG1, kappa)
heavy: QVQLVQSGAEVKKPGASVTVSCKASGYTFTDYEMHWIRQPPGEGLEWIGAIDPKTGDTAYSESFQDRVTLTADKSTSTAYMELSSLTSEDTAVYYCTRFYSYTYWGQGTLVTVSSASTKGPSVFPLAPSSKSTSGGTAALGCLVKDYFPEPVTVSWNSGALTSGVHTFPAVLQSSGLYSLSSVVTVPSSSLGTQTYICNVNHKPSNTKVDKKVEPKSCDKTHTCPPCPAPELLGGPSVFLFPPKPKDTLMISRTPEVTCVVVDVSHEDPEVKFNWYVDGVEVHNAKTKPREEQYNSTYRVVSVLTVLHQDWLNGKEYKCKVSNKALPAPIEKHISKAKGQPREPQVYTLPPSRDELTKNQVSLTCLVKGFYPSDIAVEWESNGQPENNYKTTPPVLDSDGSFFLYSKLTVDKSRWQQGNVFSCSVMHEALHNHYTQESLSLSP
light: B1 light
notes: also called Ho Ab T335_16H
B9: GpH7-B3 variant P331_20W/GpL16-k0 (antibody, human IgG1, kappa)
heavy: not shown
light: B1 light
notes: also called Ho Ab P331_20W
B10: GpH7-B3 variant T335_07I/GpL16-k0 (antibody, human IgG1, kappa)
heavy: not shown
light: B1 light
notes: also called Ho Ab T335_07I
B11: GpH7-B3 variant P331_07I/GpL16-k0 (antibody, human IgG1, kappa)
heavy: not shown
light: B1 light
notes: also called Ho Ab P331_07I
B12: GpH7-B3 variant S337_15Y/GpL16-k0 (antibody, human IgG1, kappa)
heavy: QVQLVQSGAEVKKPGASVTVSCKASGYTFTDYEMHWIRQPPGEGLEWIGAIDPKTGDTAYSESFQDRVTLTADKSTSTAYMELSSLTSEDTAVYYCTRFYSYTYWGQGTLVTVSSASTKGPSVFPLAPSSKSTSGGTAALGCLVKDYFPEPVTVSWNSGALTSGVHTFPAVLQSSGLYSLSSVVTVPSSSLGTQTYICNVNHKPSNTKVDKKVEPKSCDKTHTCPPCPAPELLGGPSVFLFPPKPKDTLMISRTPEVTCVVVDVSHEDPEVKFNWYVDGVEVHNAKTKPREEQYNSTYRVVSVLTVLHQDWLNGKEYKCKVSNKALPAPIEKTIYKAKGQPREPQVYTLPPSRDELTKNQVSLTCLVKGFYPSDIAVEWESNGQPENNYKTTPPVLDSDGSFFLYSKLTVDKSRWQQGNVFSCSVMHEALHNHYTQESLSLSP
light: B1 light
notes: also called Ho Ab S337_15Y
B13: GpH7-B3 variant S239_10E/GpL16-k0 (antibody, human IgG1, kappa)
heavy: not shown
light: B1 light
notes: also called Ho Ab S239_10E
B14: GpH7-B3 variant T335_20W/GpL16-k0 (antibody, human IgG1, kappa)
heavy: not shown
light: B1 light
notes: also called Ho Ab T335_20W
B15: GpH7-B3 variant T335_13S/GpL16-k0 (antibody, human IgG1, kappa)
heavy: not shown
light: B1 light
notes: also called Ho Ab T335_13S
B16: GpH7-B3 variant S298_06M/GpL16-k0 (antibody, human IgG1, kappa)
heavy: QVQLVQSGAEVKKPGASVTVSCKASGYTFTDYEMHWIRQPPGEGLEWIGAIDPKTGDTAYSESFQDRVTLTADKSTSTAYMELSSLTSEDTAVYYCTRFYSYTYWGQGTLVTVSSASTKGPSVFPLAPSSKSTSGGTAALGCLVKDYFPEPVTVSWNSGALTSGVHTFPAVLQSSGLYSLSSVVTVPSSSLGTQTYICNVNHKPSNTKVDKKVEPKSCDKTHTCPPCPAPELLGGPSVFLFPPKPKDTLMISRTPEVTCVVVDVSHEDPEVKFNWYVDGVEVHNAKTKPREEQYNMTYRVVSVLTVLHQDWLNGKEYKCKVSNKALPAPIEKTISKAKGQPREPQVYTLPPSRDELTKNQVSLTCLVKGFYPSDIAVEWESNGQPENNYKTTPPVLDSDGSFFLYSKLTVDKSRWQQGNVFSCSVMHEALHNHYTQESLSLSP
light: B1 light
notes: also called Ho Ab S298_06M
B17: GpH7-B3 variant S337_08L/GpL16-k0 (antibody, human IgG1, kappa)
heavy: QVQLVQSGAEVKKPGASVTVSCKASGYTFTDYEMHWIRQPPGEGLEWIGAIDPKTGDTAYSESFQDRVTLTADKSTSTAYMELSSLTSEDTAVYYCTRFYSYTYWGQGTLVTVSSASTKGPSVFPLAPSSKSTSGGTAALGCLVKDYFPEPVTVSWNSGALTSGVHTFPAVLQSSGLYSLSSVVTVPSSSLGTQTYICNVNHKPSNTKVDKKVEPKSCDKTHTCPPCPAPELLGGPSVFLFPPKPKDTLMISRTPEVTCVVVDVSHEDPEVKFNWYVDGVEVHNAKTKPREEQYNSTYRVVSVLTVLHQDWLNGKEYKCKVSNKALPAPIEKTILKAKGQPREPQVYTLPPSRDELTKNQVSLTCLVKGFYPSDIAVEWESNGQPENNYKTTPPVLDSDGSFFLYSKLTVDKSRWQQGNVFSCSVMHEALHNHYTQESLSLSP
light: B1 light
notes: also called Ho Ab S337_08L
B18: GpH7-B3 variant S337_07I/GpL16-k0 (antibody, human IgG1, kappa)
heavy: not shown
light: B1 light
notes: also called Ho Ab S337_07I
B19: GpH7-B3 variant P331_16H/GpL16-k0 (antibody, human IgG1, kappa)
heavy: not shown
light: B1 light
notes: also called Ho Ab P331_16H
B20: GpH7-B3 variant S267_06M/GpL16-k0 (antibody, human IgG1, kappa)
heavy: not shown
light: B1 light
notes: also called Ho Ab S267_06M
B21: GpH7-B3 variant S324_06M/GpL16-k0 (antibody, human IgG1, kappa)
heavy: not shown
light: B1 light
notes: also called Ho Ab S324_06M
B22: GpH7-B3 variant S239_06M/GpL16-k0 (antibody, human IgG1, kappa)
heavy: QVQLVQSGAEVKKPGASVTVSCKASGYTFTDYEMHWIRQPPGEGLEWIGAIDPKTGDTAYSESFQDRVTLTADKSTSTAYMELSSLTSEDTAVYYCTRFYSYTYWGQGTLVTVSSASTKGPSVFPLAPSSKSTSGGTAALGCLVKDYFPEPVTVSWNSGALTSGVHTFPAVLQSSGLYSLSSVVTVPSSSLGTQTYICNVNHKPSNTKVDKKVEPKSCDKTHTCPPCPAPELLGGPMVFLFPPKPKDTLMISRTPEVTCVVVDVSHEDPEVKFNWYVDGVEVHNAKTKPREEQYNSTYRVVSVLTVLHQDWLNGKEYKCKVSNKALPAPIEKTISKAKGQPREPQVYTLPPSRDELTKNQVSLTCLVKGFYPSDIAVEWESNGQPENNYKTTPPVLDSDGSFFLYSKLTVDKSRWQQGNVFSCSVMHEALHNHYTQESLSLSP
light: B1 light
notes: also called Ho Ab S239_06M
B23: GpH7-B3 variant P331_10E/GpL16-k0 (antibody, human IgG1, kappa)
heavy: not shown
light: B1 light
notes: also called Ho Ab P331_10E
B24: GpH7-B3 variant S337_16H/GpL16-k0 (antibody, human IgG1, kappa)
heavy: not shown
light: B1 light
notes: also called Ho Ab S337_16H
B25: GpH7-B3 variant V266_06M/GpL16-k0 (antibody, human IgG1, kappa)
heavy: not shown
light: B1 light
notes: also called Ho Ab V266_06M
B26: GpH7-B3 variant S267_01G/GpL16-k0 (antibody, human IgG1, kappa)
heavy: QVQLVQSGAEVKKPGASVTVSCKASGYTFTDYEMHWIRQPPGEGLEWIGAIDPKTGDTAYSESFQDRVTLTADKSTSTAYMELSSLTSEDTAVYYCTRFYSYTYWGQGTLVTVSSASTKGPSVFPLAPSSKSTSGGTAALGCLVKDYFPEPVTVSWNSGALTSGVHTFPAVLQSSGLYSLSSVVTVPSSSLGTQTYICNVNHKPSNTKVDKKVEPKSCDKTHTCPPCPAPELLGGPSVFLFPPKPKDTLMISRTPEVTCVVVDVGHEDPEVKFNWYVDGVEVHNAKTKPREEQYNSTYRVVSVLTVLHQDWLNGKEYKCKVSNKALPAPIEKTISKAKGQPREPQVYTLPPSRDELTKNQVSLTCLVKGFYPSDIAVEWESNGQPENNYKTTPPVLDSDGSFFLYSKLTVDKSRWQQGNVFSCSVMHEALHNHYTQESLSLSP
light: B1 light
notes: also called Ho Ab S267_01G
B27: GpH7-B3 variant T335_18N/GpL16-k0 (antibody, human IgG1, kappa)
heavy: not shown
light: B1 light
notes: also called Ho Ab T335_18N
B28: GpH7-B3 variant T335_10E/GpL16-k0 (antibody, human IgG1, kappa)
heavy: not shown
light: B1 light
notes: also called Ho Ab T335_10E
B29: GpH7-B3 variant P331_15Y/GpL16-k0 (antibody, human IgG1, kappa)
heavy: not shown
light: B1 light
notes: also called Ho Ab P331_15Y
B30: GpH7-B3 variant S337_20W/GpL16-k0 (antibody, human IgG1, kappa)
heavy: not shown
light: B1 light
notes: also called Ho Ab S337_20W
B31: GpH7-B3 variant S267_19Q/GpL16-k0 (antibody, human IgG1, kappa)
heavy: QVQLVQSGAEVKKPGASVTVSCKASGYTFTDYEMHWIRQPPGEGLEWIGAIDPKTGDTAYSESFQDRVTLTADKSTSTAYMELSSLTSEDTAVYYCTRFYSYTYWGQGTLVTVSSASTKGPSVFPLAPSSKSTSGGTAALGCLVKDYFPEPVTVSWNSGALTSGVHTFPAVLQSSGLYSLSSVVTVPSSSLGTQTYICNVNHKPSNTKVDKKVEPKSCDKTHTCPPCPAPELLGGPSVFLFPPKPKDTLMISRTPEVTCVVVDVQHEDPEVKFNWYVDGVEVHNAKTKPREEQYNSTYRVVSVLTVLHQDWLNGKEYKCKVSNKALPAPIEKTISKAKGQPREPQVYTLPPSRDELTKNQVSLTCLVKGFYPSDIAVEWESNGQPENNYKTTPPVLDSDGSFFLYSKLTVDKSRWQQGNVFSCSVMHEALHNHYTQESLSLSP
light: B1 light
notes: also called Ho Ab S267_19Q
B32: GpH7-B3 variant T335_19Q/GpL16-k0 (antibody, human IgG1, kappa)
heavy: not shown
light: B1 light
notes: also called Ho Ab T335_19Q
B33: GpH7-B3 variant P271_10E/GpL16-k0 (antibody, human IgG1, kappa)
heavy: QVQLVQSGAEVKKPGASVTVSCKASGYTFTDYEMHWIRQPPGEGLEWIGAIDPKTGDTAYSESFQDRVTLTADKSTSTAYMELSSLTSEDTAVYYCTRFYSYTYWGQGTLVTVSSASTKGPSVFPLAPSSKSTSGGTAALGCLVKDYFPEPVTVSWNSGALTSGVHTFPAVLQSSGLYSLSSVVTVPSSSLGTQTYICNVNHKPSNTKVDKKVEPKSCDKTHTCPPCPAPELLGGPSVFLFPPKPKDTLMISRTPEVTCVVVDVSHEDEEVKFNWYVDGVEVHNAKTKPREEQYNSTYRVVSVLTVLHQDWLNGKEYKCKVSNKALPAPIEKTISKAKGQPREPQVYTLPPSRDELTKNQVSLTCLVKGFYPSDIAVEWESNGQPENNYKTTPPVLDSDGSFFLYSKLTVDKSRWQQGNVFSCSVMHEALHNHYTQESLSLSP
light: B1 light
notes: also called Ho Ab P271_10E
B34: GpH7-B3 variant S239_05P/GpL16-k0 (antibody, human IgG1, kappa)
heavy: not shown
light: B1 light
notes: also called Ho Ab S239_05P
B35: GpH7-B3 variant T335_15Y/GpL16-k0 (antibody, human IgG1, kappa)
heavy: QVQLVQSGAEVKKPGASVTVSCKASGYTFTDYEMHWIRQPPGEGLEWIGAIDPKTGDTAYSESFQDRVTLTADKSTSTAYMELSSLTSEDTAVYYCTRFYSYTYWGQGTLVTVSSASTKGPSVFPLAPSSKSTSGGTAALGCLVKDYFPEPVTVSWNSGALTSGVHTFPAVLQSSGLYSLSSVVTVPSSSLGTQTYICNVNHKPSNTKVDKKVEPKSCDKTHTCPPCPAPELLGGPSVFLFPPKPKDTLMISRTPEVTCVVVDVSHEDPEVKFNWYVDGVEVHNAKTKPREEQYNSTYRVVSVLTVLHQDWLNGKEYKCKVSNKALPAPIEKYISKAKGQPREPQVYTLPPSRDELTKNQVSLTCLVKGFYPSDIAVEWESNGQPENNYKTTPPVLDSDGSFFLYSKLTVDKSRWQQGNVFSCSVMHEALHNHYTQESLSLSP
light: B1 light
notes: also called Ho Ab T335_15Y
B36: GpH7-B3 variant S337_18N/GpL16-k0 (antibody, human IgG1, kappa)
heavy: not shown
light: B1 light
notes: also called Ho Ab S337_18N
B37: GpH7-B3 variant P331_03V/GpL16-k0 (antibody, human IgG1, kappa)
heavy: not shown
light: B1 light
notes: also called Ho Ab P331_03V
B38: GpH7-B3 variant P331_06M/GpL16-k0 (antibody, human IgG1, kappa)
heavy: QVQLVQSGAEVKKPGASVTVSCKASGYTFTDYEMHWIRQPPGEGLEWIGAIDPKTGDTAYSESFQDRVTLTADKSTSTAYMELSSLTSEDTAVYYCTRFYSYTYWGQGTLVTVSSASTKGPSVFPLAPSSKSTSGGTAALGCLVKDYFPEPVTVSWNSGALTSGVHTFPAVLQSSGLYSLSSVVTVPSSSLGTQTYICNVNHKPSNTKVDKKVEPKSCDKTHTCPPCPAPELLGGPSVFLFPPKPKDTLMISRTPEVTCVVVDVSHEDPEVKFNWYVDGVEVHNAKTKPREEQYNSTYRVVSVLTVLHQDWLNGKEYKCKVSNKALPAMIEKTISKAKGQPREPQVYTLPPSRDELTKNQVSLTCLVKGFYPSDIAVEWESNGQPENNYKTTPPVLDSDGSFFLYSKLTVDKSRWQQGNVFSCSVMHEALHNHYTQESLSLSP
light: B1 light
notes: also called Ho Ab P331_06M
B39: GpH7-B3 variant Y296_20W/GpL16-k0 (antibody, human IgG1, kappa)
heavy: not shown
light: B1 light
notes: also called Ho Ab Y296_20W
B40: GpH7-B3 variant S239_03V/GpL16-k0 (antibody, human IgG1, kappa)
heavy: not shown
light: B1 light
notes: also called Ho Ab S239_03V

The first assay has as its target T1, FcγRIIb (human, UniProt P31994 43-217).
T1 construct: extracellular domain; also called 2b; FcgRIIb
T1 sequence (looked up): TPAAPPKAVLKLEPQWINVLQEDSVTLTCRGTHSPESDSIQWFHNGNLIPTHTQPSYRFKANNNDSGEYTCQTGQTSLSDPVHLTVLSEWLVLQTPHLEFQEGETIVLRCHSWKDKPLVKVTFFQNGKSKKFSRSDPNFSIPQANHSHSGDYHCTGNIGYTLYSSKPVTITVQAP
The experiment in a line: SPR (Biacore), binding relative to GpH7-A5/GpH7-B3/GpL16-k0 = 100. How it is done: (§1) Analysis of interaction between objective antibody and the FcγR was carried out using Biacore T100 (GE Healthcare). HBS-EP+ (GE Healthcare) was used as the running buffer, and the measurement temperature was set to 25° C. Chips produced by immobilizing the antigen peptide by the amine coupling method to a Series S Sencor Chip CM5 (GE Healthcare), or alternatively, chips produced by allowing preliminarily biotinylated antigen peptides to interact with and immobilize onto a Series S Sensor Chip SA (certified) (GE Healthcare) were used. Antibodies of interest were captured onto an antigen peptide-immobilized chip, and allowed to interact to each FcγR diluted with running buffer. To regenerate and repeatedly use the chip, the antibodies captured on the chip were washed off by reacting 10 mM glycine-HCl, pH 1.5.
(§2) The FcγR-binding activity of each antibody was assessed primarily using as an indicator the FcγR-binding activity and dissociation constant for FcγR.
Background: SPR reads the build-up and loss of mass on a sensor chip optically.
For the molecule B1, the He/Con_2b was 124 % of control.

Consider B2, for which the He/Con_2b was 113 % of control.

As to B3, the He/Con_2b is 149 % of control.

For the molecule B4, the He/Con_2b was 127 % of control.

As for B5, the He/Con_2b was 137 % of control.

In the case of B6, the He/Con_2b is 104 % of control.

In the next assay the target is T1, FcγRIIb. The experiment in a line: SPR (Biacore), binding relative to GpH7-B3/GpL16-k0 = 100. How it is done:
as §1, §2
With B7, the Ho/Con_2b is 100 % of control.

For the molecule B8, the Ho/Con_2b is 97.2 % of control.

As to B9, the Ho/Con_2b is 111 % of control.

As for B10, the Ho/Con_2b is 104 % of control.

On to B11, for which the Ho/Con_2b was 63.3 % of control.

As to B12, the Ho/Con_2b was 93.4 % of control.

Take B13: the Ho/Con_2b is 175 % of control.

Turning to B14, the Ho/Con_2b was 94.4 % of control.

For the molecule B15, the Ho/Con_2b is 95.2 % of control.

For the molecule B16, the Ho/Con_2b was 101 % of control.

Turning to B17, the Ho/Con_2b is 90.7 % of control.

In the case of B18, the Ho/Con_2b is 96.6 % of control.

As for B19, the Ho/Con_2b was 100 % of control.

B20: the Ho/Con_2b is 187 % of control.

B21: the Ho/Con_2b is 104 % of control.

For B22, the Ho/Con_2b is 84.3 % of control.

In the case of B23, the Ho/Con_2b was 92.3 % of control.

For B24, the Ho/Con_2b was 103 % of control.

With B25, the Ho/Con_2b is 231 % of control.

B26: the Ho/Con_2b was 97 % of control.

For B27, the Ho/Con_2b was 96.1 % of control.

On to B28, for which the Ho/Con_2b was 108 % of control.

For the molecule B29, the Ho/Con_2b is 111 % of control.

Take B30: the Ho/Con_2b is 99.6 % of control.

For B31, the Ho/Con_2b was 185 % of control.

For B32, the Ho/Con_2b is 97.3 % of control.

In the case of B33, the Ho/Con_2b is 95 % of control.

As for B34, the Ho/Con_2b is 61 % of control.

As to B35, the Ho/Con_2b is 104 % of control.

For the molecule B36, the Ho/Con_2b was 98 % of control.

For B37, the Ho/Con_2b is 86.6 % of control.

Consider B38, for which the Ho/Con_2b was 71.5 % of control.

As to B39, the Ho/Con_2b was 103 % of control.

With B40, the Ho/Con_2b is 108 % of control.
